B1: 单抗5G2 (antibody)
heavy: EVLLQQSGPELVKPGASVKIPCKASGYTFTDYNMDWVKQSHGKSLEWIGDINPNSGFIIYNQKFKGKASLTVDKSSSTAYMELRSLTSEDTAVYYCAREGYGNNFDYWGQGTTLSVSSAKTTPPSVYPLAPGCGDTTGSSVTLGCLVKGYFPESVTVTWNSGSLSSSVHTFPALLQSGLYTMSSSVTVPSSTWPSQTVTCSVAHPASSTTVDKKLEPSGPISTINPCPPCKECHKCPAPNLEGGPSVFIFPPNIKDVLMISLTPKVTCVVVDVSEDDPDVQISWFVNNVEVHTAQTQTHREDYNSTIRVVSTLPIQHQDWMSGKEFKCKVNNKDLPSPIERTISKIKGLVRAPQVYILPPPAEQLSRKDVSLTCLVVGFNPGDISVEWTSNGHTEENYKDTAPVLDSDGSYFIYSKLNMKTSKWEKTDSFSCNVRHEGLKNYYLKKTISRSPGK
light: DILLTQSPTILSVSPGERVSFSCRASQSIGTSIHWYQQRTKGSPRLLIKYASESISGIPSRFSGSGSGTDFTLSINSVESEDIGDYYCQQSYSWPTTFGAGTKLELK
notes: also called 抗体5G2
B2: 单抗3H3 (antibody, V domains shown)
VH: QVQLQQPGAELVRPGASVKLSCKASGYSFTRFWMNWVKQRPGQGLEWIGMIHPSDSETRLNQKFKDKATLTVDKSSTTAYMQLSSPTSEDSAVYYCARKDYDYDAWFAYWGQGTLVTVSA
VL: DIVLTQSPASLAVSLGQRATISCRASKSVSASVYSYMHWYQQKPGQPPKLLIYLASSLESGVPARFSGSGSGTDFTLNIHPVEEEDAATYYCHHSRELPPAFGGGTKLEIKR
notes: also called 抗体3H3

How the values were obtained:
Assay in all cases: cell-based or functional assay
[1] = target: SARS-CoV-2 B.1.1.7假病毒的S蛋白 (SARS-CoV-2 B.1.1.7)
[2] = target: SARS-CoV-2 B.1.351假病毒的S蛋白 (SARS-CoV-2 B.1.351)
[3] = target: SARS-CoV-2 B.1.617假病毒的S蛋白 (SARS-CoV-2 B.1.617)

Row | Binder | 半数抑制浓度(IC50), 假病毒中和试验 [1] [µg/mL] | 半数抑制浓度(IC50), 假病毒中和试验 [2] [µg/mL] | 半数抑制浓度(IC50), 假病毒中和试验 [3] [µg/mL] | 中和IC50, 假病毒中和试验 [1] [µg/mL] | 中和IC50, 假病毒中和试验 [2] [µg/mL] | 中和IC50, 假病毒中和试验 [3] [µg/mL]
1 | B1 | 0.482 | 0.367 | 0.103 |  |  | 
2 | B2 |  |  |  | 0.191 | 0.107 | 0.098

From CN115521375A (INST PASTEUR SHANGHAI CAS, dated 2022)
